Reference: US20260062488A1 (AbbVie / Abbott, published 2026)

Columns and labels:
cynomolgus α4β7 integrin [1] = biological target: T1, cynomolgus α4β7 integrin (cynomolgus monkey); assay: FACS, cyno CD4+ naïve
T1 construct: whole, on cells; On CHOK1-cα4β7 cells or cynomolgus blood lymphocytes; also called cα4β7; cyno α4β7

cynomolgus α4β7 integrin [2] = biological target: T1, cynomolgus α4β7 integrin; assay: FACS, cyno CD4+ total
cynomolgus α4β7 integrin [3] = biological target: T1, cynomolgus α4β7 integrin; assay: FACS, cyno CD8+ total
rabbit α4β7 integrin = biological target: T2, rabbit α4β7 integrin (rabbit); assay: FACS, rabbit CD4+ T cells
T2 construct: whole, on cells; On rabbit PBMCs

cynomolgus α4β7 integrin [4] = biological target: T1, cynomolgus α4β7 integrin; assay: FACS, cynomolgus lymphocytes
cynomolgus α4β7 integrin [5] = biological target: T1, cynomolgus α4β7 integrin; assay: FACS, cyno total CD4+ T cells
cynomolgus α4β7 integrin [6] = biological target: T1, cynomolgus α4β7 integrin; assay: FACS, cyno total CD8+ T cells
cynomolgus α4β7 integrin [7] = biological target: T1, cynomolgus α4β7 integrin; assay: binding, cynomolgus lymphocytes, summary table
cynomolgus α4β7 integrin [8] = biological target: T1, cynomolgus α4β7 integrin; assay: binding, cynomolgus CD4+ memory T cells, summary table
cynomolgus α4β7 integrin [9] = biological target: T1, cynomolgus α4β7 integrin; assay: binding, cynomolgus CD8+ memory T cells, summary table
human FcRn ECD protein = biological target: T3, human FcRn ECD protein (human, UniProt P55899 24-297; P61769 21-119); assay: SPR (Biacore), antibody immobilised, FcRn injected, pH 6.0, steady state; pH 6.0
T3 construct: extracellular domain
T3 sequence (P55899 24-297 limits assumed, chain 1 of 2): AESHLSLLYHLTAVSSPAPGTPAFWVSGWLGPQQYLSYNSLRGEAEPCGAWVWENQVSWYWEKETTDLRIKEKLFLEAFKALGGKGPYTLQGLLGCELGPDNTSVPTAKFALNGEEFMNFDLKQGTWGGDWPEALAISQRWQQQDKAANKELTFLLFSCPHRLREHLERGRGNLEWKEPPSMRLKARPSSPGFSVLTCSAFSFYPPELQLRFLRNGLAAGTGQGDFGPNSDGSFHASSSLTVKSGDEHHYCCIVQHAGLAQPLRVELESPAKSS
T3 sequence (P61769 21-119 limits assumed, chain 2 of 2): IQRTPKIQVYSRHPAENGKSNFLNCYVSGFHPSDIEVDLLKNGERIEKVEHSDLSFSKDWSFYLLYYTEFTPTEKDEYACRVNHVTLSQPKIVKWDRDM

[10] = biological target: T4, cynomolgus FcRn ECD protein (cynomolgus monkey, UniProt Q8SPV9 24-297; Q8SPW0 21-119); assay: as above
T4 construct: extracellular domain
T4 sequence (Q8SPV9 24-297 limits assumed, chain 1 of 2): as the sequence (P55899 24-297 limits assumed, chain 1 of 2) above, with N39D, E44Q, G99S, S189G, S190N, L217M, S269T counted along it
T4 sequence (Q8SPW0 21-119 limits assumed, chain 2 of 2): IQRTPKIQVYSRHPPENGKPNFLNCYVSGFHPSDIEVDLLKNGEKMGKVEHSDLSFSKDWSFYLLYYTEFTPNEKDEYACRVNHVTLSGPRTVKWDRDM

FcgRIIIB NA1 = biological target: T5, FcgRIIIB NA1 (human, UniProt O75015); assay: flow cytometry on CHO-K1 cells expressing the receptor (curve FcgRIIIB NA1), monomeric antibody, F(ab')2 anti-human IgG AF647; N=1
T5 construct: cell surface, on engineered CHO-K1 cells; the list of molecules has only an FcγRIIIb on CHO-K1 cells without the allotype; also called human FcγRIIIb (NA1) on CHO-K1 cells
T5 sequence (O75015 other isoform, or with tags, fused parts or gaps limits assumed): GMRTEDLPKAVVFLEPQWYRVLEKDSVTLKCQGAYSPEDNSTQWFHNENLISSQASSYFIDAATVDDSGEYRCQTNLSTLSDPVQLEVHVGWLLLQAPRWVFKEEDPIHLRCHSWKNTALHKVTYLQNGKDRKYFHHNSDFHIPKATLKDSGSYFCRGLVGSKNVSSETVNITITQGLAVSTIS

FcgRIIIB NA2 = biological target: T6, FcgRIIIB NA2 (human, UniProt O75015); assay: flow cytometry on CHO-K1 cells expressing the receptor (curve FcgRIIIB NA2), monomeric antibody, F(ab')2 anti-human IgG AF647; N=1
T6 construct: cell surface, on engineered CHO-K1 cells; the list of molecules has only an FcγRIIIb on CHO-K1 cells without the allotype; also called human FcγRIIIb (NA2) on CHO-K1 cells
T6 sequence (O75015 17-200 N65S limits assumed): as the sequence (O75015 other isoform, or with tags, fused parts or gaps limits assumed) above, with R20S, N49S, D66N, V90I counted along it

[11] = biological target: T7, human FcγRIIIa (F176) on CHO-K1 cells (human, UniProt P08637 17-254); assay: flow cytometry on CHO-K1 cells expressing the receptor (curve FcgRIIIA F176), monomeric antibody, F(ab')2 anti-human IgG AF647; N=1
T7 construct: whole, on cells; also called F158
T7 sequence (P08637 17-254): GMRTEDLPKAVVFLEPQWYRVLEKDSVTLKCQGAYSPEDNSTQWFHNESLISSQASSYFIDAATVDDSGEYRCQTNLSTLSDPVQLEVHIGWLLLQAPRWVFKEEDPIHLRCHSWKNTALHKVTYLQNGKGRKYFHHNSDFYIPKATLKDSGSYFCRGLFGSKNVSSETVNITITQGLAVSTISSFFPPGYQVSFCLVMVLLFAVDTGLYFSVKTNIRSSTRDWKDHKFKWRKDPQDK

B1: Ab-h1.9d-WT (antibody, human IgG1, kappa)
heavy: not shown
light: DIQMTQSPSSLSASVGDRVTITCHASQDISDNIGWLQQKPGKSFKLLIYHGTNLEDGVPSRFSGSGSGTDYTLTISSLQPEDFATYYCVQYAQFPWTFGGGTKVEIKRTVAAPSVFIFPPSDEQLKSGTASVVCLLNNFYPREAKVQWKVDNALQSGNSQESVTEQDSKDSTYSLSSTLTLSKADYEKHKVYACEVTHQGLSSPVTKSFNRGEC
notes: IgG1/kappa with D356E and L358M (EU); also called Anti-human α4β7 (AC-166667) hu IgG1/k WT mAb
EC50 (cynomolgus α4β7 integrin [1]): 0.045 nM | EC50 (cynomolgus α4β7 integrin [2]): 0.03 nM | EC50 (cynomolgus α4β7 integrin [3]): 0.035 nM | EC50 (rabbit α4β7 integrin): 0.097 nM | EC50 (cynomolgus α4β7 integrin [4]): 0.062 nM | EC50 (cynomolgus α4β7 integrin [5]): 0.03 nM | EC50 (cynomolgus α4β7 integrin [6]): 0.035 nM | EC50 (cynomolgus α4β7 integrin [7]): 0.062 nM | EC50 (cynomolgus α4β7 integrin [8]): 0.01 nM | EC50 (cynomolgus α4β7 integrin [9]): 0.036 nM | Kd (human FcRn ECD protein): 3300 nM | Kd [10]: 2200 nM | binding result (FcgRIIIB NA1): binds | binding result (FcgRIIIB NA2): binds | binding result [11]: binds
